These results are taken from PMC4552549.

The target of this assay is TβRII (TGF-β1 receptor) on PBMC (human (endogenous in PBMC)) (UniProt P37173).
Chain of UniProt P37173 (P37173 23-567): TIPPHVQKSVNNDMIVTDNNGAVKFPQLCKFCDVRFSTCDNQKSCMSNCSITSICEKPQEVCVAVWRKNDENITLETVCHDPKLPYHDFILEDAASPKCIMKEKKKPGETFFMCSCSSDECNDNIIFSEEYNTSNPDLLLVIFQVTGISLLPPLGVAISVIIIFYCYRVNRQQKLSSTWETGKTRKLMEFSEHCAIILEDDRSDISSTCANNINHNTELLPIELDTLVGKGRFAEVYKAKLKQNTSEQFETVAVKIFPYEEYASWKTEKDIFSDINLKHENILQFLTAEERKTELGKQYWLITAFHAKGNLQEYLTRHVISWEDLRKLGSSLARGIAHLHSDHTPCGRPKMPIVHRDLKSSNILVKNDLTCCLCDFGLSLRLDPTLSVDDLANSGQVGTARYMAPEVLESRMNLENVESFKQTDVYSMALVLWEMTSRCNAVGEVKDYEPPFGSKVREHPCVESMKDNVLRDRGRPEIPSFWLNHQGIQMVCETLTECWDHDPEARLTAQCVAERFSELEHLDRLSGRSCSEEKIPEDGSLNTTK

ACESPLKRQCGGGS [pm26TGF-β1 synthetic peptide] displayed a percentage of Tregs (CD4+CD25+Foxp3+, flow cytometry) in PBMC after the peptide at 1 μM, 10 μM and 100 μM (5.43%, 6.67% and 5.90%; untreated 4.94%) of 6.67%.
